Laboratory results as given in patent US20190015483A1 (CSL BEHRING RECOMBINANT FACILITY, published 2019).
Substitutions are numbered along the chain they refer to. Names may count otherwise.

T1: recombinant Factor VIII (CSL627, rVIII-SingleChain) (Homo sapiens (Human), UniProt P00451 20-2351)
T1 construct: also called FVIII
T1 sequence: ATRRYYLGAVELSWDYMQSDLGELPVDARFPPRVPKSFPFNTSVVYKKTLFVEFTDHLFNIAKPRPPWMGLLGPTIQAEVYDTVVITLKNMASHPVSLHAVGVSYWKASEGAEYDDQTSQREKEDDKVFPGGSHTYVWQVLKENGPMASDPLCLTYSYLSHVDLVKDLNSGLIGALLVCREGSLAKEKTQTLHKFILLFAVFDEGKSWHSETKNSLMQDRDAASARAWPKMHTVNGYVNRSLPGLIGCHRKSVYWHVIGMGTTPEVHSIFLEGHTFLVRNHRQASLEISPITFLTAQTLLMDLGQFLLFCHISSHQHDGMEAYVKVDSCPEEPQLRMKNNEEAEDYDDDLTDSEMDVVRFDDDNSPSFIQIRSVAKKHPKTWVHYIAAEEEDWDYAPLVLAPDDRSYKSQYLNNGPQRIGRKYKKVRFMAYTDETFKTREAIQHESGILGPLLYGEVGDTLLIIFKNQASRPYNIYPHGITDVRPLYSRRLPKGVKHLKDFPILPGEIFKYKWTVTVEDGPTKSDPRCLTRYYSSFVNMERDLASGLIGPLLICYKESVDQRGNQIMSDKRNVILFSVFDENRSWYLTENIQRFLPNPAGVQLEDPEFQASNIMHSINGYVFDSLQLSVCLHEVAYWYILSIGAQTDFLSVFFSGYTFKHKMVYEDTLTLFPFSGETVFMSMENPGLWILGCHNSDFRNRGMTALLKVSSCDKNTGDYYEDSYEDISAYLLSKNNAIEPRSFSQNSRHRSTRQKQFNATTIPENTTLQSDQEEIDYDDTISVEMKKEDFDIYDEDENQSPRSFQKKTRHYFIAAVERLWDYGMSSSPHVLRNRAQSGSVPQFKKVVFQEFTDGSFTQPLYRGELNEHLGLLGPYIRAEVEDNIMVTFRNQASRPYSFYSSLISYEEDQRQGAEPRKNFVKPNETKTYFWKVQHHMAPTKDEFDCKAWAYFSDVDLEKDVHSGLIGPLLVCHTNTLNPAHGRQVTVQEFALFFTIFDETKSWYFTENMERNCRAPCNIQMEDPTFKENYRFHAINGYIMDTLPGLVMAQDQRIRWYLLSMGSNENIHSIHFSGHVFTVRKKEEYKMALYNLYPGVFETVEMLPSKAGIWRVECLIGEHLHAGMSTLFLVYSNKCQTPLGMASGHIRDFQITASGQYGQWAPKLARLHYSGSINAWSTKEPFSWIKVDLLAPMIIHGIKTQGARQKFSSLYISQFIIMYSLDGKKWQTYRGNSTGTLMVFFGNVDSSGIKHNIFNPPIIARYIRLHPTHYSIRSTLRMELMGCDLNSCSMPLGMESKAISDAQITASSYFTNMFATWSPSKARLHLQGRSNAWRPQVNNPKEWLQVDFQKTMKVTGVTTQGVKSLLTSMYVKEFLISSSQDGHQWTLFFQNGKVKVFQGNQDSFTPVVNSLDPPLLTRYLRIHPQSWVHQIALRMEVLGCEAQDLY

B1: Hu-vWF[764-1270]-8His S766W-S806Q (other)
chain: SLWCRPPMVKLVCPADNLRAEGLECTKTCQNYDLECMSMGCVQGCLCPPGMVRHENRCVALERCPCFHQGKEYAPGETVKIGCNTCVCRDRKWNCTDHVCDATCSTIGMAHYLTFDGLKYLFPGECQYVLVQDYCGSNPGTFRILVGNKGCSHPSVKCKKRVTILVEGGEIELFDGEVNVKRPMKDETHFEVVESGRYIILLLGKALSVVWDRHLSISVVLKQTYQEKVCGLCGNFDGIQNNDLTSSNLQVEEDPVDFGNSWKVSSQCADTRKVPLDSSPATCHNNIMKQTMVDSSCRILTSDVFQDCNKLVDPEPYLDVCIYDTCSCESIGDCACFCDTIAAYAHVCAQHGKVVTWRTATLCPQSCEERNLRENGYECEWRYNSCAPACQVTCQHPEPLACPVQCVEGCHAHCPPGKILDELLQTCVDPEDCPVCEVAGRRFASGKKVTLNPSDPEHCQICHCDVVNLTCEACQEPGGLVVPPTDAPVSPTTLYVEDISEPPLHDFHHHHHHHH
B2: Hu-vWF[764-1270]-8His S766Y-P769L (other)
chain: B1 chain with W3Y, P6L, Q43S
B3: Hu-vWF[764-1270]-8His S766Y-P769T (other)
chain: B1 chain with W3Y, P6T, Q43S
B4: Hu-vWF[764-1270]-8His S766Y-P769D (other)
chain: B1 chain with W3Y, P6D, Q43S
B5: Hu-vWF[764-1270]-8His S766Y-R768D (other)
chain: B1 chain with W3Y, R5D, Q43S
B6: Hu-vWF[764-1270]-8His S766Y-P769A (other)
chain: B1 chain with W3Y, P6A, Q43S
B7: Hu-vWF[764-1270]-8His S766Y-R768I (other)
chain: B1 chain with W3Y, R5I, Q43S
B8: Hu-vWF[764-1270]-8His S766Y-P769Q (other)
chain: B1 chain with W3Y, P6Q, Q43S
B9: Hu-vWF[764-1270]-8His S766Y-P769G (other)
chain: B1 chain with W3Y, P6G, Q43S
B10: Hu-vWF[764-1270]-8His S766Y-R768E (other)
chain: B1 chain with W3Y, R5E, Q43S
B11: Hu-vWF[764-1270]-8His S766Y-R768A (other)
chain: B1 chain with W3Y, R5A, Q43S
B12: Hu-vWF[764-1270]-8His S766W-S806R (other)
chain: B1 chain with Q43R
B13: Hu-vWF[764-1270]-8His S766Y-R768F (other)
chain: B1 chain with W3Y, R5F, Q43S
B14: Hu-vWF[764-1270]-8His S766Y-P769F (other)
chain: B1 chain with W3Y, P6F, Q43S
B15: Hu-vWF[764-1270]-8His S766Y-P769Y (other)
chain: B1 chain with W3Y, P6Y, Q43S
B16: Hu-vWF[764-1270]-8His S766Y-P769I (other)
chain: B1 chain with W3Y, P6I, Q43S
B17: Hu-vWF[764-1270]-8His S766W-S806V (other)
chain: B1 chain with Q43V
B18: Hu-vWF[764-1270]-8His S766Y-P769E (other)
chain: B1 chain with W3Y, P6E, Q43S
B19: Hu-vWF[764-1270]-8His S766W-S806T (other)
chain: B1 chain with Q43T
B20: Hu-vWF[764-1270]-8His S766Y-P769H (other)
chain: B1 chain with W3Y, P6H, Q43S
B21: Hu-vWF[764-1270]-8His S766Y-P769M (other)
chain: B1 chain with W3Y, P6M, Q43S
B22: Hu-vWF[764-1270]-8His S766Y-R768G (other)
chain: B1 chain with W3Y, R5G, Q43S
B23: Hu-vWF[764-1270]-8His S766Y-P769K (other)
chain: B1 chain with W3Y, P6K, Q43S
B24: Hu-vWF[764-1270]-8His S766Y-P769N (other)
chain: B1 chain with W3Y, P6N, Q43S
B25: Hu-vWF[764-1270]-8His S766Y-P769S (other)
chain: B1 chain with W3Y, P6S, Q43S
B26: Hu-vWF[764-1270]-8His S766Y-R768K (other)
chain: B1 chain with W3Y, R5K, Q43S
B27: Hu-vWF[764-1270]-8His S766Y-P769W (other)
chain: B1 chain with W3Y, P6W, Q43S
B28: Hu-vWF[764-1270]-8His S766W-S806Y (other)
chain: B1 chain with Q43Y
B29: Hu-vWF[764-1270]-8His S766W-S806W (other)
chain: B1 chain with Q43W
B30: Hu-vWF[764-1270]-8His S766Y-P769R (other)
chain: B1 chain with W3Y, P6R, Q43S
B31: Hu-vWF[764-1270]-8His S766Y-P769V (other)
chain: B1 chain with W3Y, P6V, Q43S
B32: Hu-vWF[764-1270]-8His S766Y-R768H (other)
chain: B1 chain with W3Y, R5H, Q43S

Each binder was assayed against T1, recombinant Factor VIII (CSL627, …) (assay: SPR, anti-His capture, FVIII injected, 37 C).
Method: Binding kinetics were investigated by surface plasmon resonance using a Biacore 4000 biosensor at 37° C. Each mutant was captured from cell culture medium to a density of 40-150 RU on a CM-5 sensor chip pre-immobilised with anti-His antibody (14,000 RU). In an initial screening study, FVIII was injected over the captured mutants for 5 minutes at 1 nM and dissociation monitored for 5 minutes.
All sensorgrams were double referenced by subtraction of signals from a reference spot (containing only immobilised anti His antibody) and from a blank injection. Binding kinetics were determined by fitting the double referenced sensorgrams to a 1:1 kinetic model.

Kd | koff | kon | binding result | Binder
0.407 nM | 0.00176 s⁻¹ | 4.33e+06 M⁻¹ s⁻¹ | – | B1
0.0917 nM | 0.00059 s⁻¹ | 6.44e+06 M⁻¹ s⁻¹ | – | B2
0.0979 nM | 0.0005 s⁻¹ | 5.11e+06 M⁻¹ s⁻¹ | – | B3
0.165 nM | 0.000763 s⁻¹ | 4.63e+06 M⁻¹ s⁻¹ | – | B4
0.908 nM | 0.00448 s⁻¹ | 4.94e+06 M⁻¹ s⁻¹ | – | B5
0.106 nM | 0.000519 s⁻¹ | 4.9e+06 M⁻¹ s⁻¹ | – | B6
0.179 nM | 0.000899 s⁻¹ | 5.03e+06 M⁻¹ s⁻¹ | – | B7
– | – | – | no binding | B8
0.212 nM | 0.000783 s⁻¹ | 3.7e+06 M⁻¹ s⁻¹ | – | B9
0.569 nM | 0.00322 s⁻¹ | 5.65e+06 M⁻¹ s⁻¹ | – | B10
0.212 nM | 0.00148 s⁻¹ | 6.99e+06 M⁻¹ s⁻¹ | – | B11
1.29 nM | 0.0107 s⁻¹ | 8.28e+06 M⁻¹ s⁻¹ | – | B12
0.279 nM | 0.00182 s⁻¹ | 6.51e+06 M⁻¹ s⁻¹ | – | B13
0.0772 nM | 0.000427 s⁻¹ | 5.54e+06 M⁻¹ s⁻¹ | – | B14
0.0847 nM | 0.000396 s⁻¹ | 4.68e+06 M⁻¹ s⁻¹ | – | B15
– | – | – | no binding | B16

Kd | koff | kon | binding result | Binder
0.149 nM | 0.000619 s⁻¹ | 4.17e+06 M⁻¹ s⁻¹ | – | B17
0.0936 nM | 0.000414 s⁻¹ | 4.42e+06 M⁻¹ s⁻¹ | – | B18
0.125 nM | 0.000654 s⁻¹ | 5.25e+06 M⁻¹ s⁻¹ | – | B19
0.0809 nM | 0.000417 s⁻¹ | 5.16e+06 M⁻¹ s⁻¹ | – | B20
0.108 nM | 0.000511 s⁻¹ | 4.75e+06 M⁻¹ s⁻¹ | – | B21
0.32 nM | 0.00102 s⁻¹ | 3.2e+06 M⁻¹ s⁻¹ | – | B22
0.0607 nM | 0.000383 s⁻¹ | 6.31e+06 M⁻¹ s⁻¹ | – | B23
0.0325 nM | 0.00052 s⁻¹ | 1.6e+07 M⁻¹ s⁻¹ | – | B24
0.113 nM | 0.000511 s⁻¹ | 4.51e+06 M⁻¹ s⁻¹ | – | B25
0.109 nM | 0.000417 s⁻¹ | 3.83e+06 M⁻¹ s⁻¹ | – | B26
0.0882 nM | 0.000421 s⁻¹ | 4.77e+06 M⁻¹ s⁻¹ | – | B27
– | – | – | no binding | B28
– | – | – | no binding | B29
0.045 nM | 0.000295 s⁻¹ | 6.55e+06 M⁻¹ s⁻¹ | – | B30
0.0849 nM | 0.000565 s⁻¹ | 6.65e+06 M⁻¹ s⁻¹ | – | B31
0.172 nM | 0.00069 s⁻¹ | 4.02e+06 M⁻¹ s⁻¹ | – | B32
